Drawing on patent US20030036092A1, this text covers mean fluorescence intensity of cells by FACS after exposure to the fluorogenic substrate for 1 substance.

This test has as its target fluorogenic OmpT peptide substrate (BODIPY / trimethylrhodamine). Kind of test: cell-based or functional assay.

“OmpT protease, wild type, expressed from multicopy plasmid pML19 in E. coli UT5600 (from UniProt P09169 21-317) (enzyme)” came in with a mean fluorescence intensity of cells by FACS after exposure to the fluorogenic substrate of 30 times.
